Laboratory results published in patent US20240270857A1 (CHIA TAI TIANQING PHARMACEUTICAL GROUP, published 2024).
Residue numbers refer to the chain shown, from its start.

T1: human IL-36R overexpressed on 293T-hIL36R-NFκB cells (human, UniProt Q9HB29 20-575)
T1 sequence: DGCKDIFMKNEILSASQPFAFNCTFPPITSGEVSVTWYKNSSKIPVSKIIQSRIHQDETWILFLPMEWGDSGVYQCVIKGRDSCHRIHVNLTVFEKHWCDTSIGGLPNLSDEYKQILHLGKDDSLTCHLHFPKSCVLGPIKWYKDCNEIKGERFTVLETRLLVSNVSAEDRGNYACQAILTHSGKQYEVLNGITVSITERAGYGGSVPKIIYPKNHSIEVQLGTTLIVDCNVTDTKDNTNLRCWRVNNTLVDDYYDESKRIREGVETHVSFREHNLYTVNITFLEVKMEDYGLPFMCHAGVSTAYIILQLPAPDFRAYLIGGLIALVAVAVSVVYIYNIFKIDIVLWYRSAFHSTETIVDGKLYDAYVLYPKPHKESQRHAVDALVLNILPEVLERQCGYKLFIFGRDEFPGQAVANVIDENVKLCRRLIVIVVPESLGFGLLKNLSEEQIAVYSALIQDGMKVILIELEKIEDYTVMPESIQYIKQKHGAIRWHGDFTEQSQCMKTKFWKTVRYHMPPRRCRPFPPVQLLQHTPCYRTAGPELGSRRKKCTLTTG

B1: hz72C1-1.2 (antibody, human IgG4 S228P, kappa)
heavy: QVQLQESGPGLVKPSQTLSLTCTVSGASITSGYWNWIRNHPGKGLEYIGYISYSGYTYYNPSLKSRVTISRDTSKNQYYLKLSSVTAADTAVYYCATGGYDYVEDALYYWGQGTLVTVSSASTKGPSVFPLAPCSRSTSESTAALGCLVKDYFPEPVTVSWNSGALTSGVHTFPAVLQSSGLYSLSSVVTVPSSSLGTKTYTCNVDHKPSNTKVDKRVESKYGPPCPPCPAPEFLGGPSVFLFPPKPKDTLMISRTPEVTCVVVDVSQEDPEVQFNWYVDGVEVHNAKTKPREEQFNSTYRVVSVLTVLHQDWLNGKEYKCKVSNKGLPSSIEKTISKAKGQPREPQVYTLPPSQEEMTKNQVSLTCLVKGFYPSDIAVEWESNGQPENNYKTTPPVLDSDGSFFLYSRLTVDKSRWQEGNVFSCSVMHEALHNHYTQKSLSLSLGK
light: DIQMTQSPSSLSASVGDRVTITCRASSNVRYMYWYQQKPGKAPKLWIYLTSNLASGVPSRFSGSGSGTSYTLTISSLQPEDFATYYCQQFTTSPYTFGQGTKLEIKRTVAAPSVFIFPPSDEQLKSGTASVVCLLNNFYPREAKVQWKVDNALQSGNSQESVTEQDSKDSTYSLSSTLTLSKADYEKHKVYACEVTHQGLSSPVTKSFNRGEC
notes: Humanized, human IgG4 / kappa
B2: hz72C1-1.1 (antibody, human IgG4 S228P, kappa)
heavy: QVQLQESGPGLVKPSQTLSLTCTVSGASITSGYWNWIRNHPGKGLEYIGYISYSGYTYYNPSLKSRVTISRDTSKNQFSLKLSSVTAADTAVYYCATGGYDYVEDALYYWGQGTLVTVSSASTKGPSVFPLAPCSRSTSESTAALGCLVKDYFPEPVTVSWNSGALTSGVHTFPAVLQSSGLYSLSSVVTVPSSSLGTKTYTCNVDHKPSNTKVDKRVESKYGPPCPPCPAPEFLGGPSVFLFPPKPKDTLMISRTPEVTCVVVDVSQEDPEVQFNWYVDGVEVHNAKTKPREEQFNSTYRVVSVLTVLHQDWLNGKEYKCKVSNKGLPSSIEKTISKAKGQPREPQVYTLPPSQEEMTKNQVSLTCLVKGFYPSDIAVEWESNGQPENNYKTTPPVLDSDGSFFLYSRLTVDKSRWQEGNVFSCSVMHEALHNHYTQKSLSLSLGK
light: B1 light
notes: Humanized, human IgG4 / kappa; also called humanized 72C1 antibody 1.1
B3: hz72C1-1.3 (antibody, human IgG4 S228P, kappa)
heavy: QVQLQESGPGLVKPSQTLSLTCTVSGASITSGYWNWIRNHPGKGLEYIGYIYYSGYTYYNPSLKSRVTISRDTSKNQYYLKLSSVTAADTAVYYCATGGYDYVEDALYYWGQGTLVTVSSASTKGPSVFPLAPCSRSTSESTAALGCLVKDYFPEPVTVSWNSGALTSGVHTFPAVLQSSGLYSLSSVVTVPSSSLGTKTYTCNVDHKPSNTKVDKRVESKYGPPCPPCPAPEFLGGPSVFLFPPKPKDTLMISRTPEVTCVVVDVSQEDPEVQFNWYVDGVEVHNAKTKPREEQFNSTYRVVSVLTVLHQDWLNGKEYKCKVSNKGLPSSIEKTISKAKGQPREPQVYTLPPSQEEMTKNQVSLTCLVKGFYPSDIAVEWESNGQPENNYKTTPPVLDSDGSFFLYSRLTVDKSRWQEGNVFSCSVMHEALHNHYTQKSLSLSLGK
light: B1 light
notes: Humanized, human IgG4 / kappa
B4: hz72C1-2.1 (antibody, human IgG4 S228P, kappa)
heavy: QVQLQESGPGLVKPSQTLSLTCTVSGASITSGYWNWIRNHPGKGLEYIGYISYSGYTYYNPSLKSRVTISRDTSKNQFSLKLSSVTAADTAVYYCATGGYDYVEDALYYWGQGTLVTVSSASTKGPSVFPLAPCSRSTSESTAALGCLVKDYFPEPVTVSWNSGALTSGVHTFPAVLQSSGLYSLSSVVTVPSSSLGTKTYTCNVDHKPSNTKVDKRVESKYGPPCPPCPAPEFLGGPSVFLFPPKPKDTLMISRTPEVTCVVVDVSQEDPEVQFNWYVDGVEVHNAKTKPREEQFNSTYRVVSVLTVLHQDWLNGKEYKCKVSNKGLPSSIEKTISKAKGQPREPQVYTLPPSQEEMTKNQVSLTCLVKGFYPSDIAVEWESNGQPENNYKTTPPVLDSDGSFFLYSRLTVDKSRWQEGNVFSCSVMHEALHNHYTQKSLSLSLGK
light: B1 light with F90Y
notes: Humanized, human IgG4 / kappa
B5: hz72C1-2.2 (antibody, human IgG4 S228P, kappa)
heavy: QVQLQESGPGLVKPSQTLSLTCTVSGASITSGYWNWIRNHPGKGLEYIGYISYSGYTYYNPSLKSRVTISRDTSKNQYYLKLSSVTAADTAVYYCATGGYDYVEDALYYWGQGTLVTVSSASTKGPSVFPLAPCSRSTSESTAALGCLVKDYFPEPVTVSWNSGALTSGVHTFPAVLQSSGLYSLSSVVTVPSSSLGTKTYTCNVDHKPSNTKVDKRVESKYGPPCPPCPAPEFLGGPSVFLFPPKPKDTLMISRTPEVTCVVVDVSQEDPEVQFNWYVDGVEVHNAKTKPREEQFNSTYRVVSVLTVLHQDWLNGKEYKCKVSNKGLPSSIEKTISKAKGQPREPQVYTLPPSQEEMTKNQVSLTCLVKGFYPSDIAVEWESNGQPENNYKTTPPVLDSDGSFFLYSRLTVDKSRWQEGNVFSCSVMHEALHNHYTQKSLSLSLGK
light: B1 light with F90Y
notes: Humanized, human IgG4 / kappa
B6: hz72C1-2.3 (antibody, human IgG4 S228P, kappa)
heavy: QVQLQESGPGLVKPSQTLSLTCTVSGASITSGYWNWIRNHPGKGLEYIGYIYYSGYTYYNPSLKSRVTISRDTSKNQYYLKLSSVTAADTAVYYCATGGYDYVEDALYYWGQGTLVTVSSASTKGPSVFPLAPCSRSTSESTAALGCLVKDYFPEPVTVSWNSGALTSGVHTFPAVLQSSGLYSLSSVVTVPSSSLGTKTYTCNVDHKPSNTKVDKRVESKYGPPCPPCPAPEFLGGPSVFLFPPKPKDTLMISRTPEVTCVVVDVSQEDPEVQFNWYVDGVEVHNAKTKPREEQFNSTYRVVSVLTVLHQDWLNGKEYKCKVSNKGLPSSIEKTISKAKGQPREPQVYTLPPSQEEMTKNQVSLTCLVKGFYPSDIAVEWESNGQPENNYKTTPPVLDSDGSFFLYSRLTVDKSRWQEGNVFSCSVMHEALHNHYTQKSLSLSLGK
light: B1 light with F90Y
notes: Humanized, human IgG4 / kappa

The binders below were run against T1, human IL-36R overexpressed on … (assay: cell-based or functional assay).
B1 was tested, and the “IC50 (M); hIL36α; NFκB-luciferase” value was 1.04e-08 M, the “IC50 (M); hIL36αβγ; NFκB-luciferase” value was roughly 4.15e-08 M and the “IC50 (M); hIL36β; NFκB-luciferase” value was 5.07e-09 M. For the same binder, the “IC50 (M); hIL36γ; NFκB-luciferase” value was 2.18e-08 M, the “Maximum inhibition rate %; hIL36α; NFκB-luciferase” value was 101% and the “Maximum inhibition rate %; hIL36αβγ; NFκB-luciferase” value (shortened to “Maximum inhibition rate %; hIL36αβγ”) was 86.7%. The “Maximum inhibition rate %; hIL36β; NFκB-luciferase” value (“Maximum inhibition rate %; hIL36β” for short) was 96.9% and the “Maximum inhibition rate %; hIL36γ; NFκB-luciferase” value (from here on “Maximum inhibition rate %; hIL36γ”) was 98.4%.
With B2 the “IC50 (M); hIL36α; NFκB-luciferase” value was 9.56e-09 M, the “IC50 (M); hIL36αβγ; NFκB-luciferase” value was 5.27e-08 M and the “IC50 (M); hIL36β; NFκB-luciferase” value was 3.07e-09 M. For the same binder, the “IC50 (M); hIL36γ; NFκB-luciferase” value was 2.82e-08 M, the “Maximum inhibition rate %; hIL36α; NFκB-luciferase” value was 99.6% and the “Maximum inhibition rate %; hIL36αβγ” value was 109%. For the same binder, the “Maximum inhibition rate %; hIL36β” value was 94.6% and the “Maximum inhibition rate %; hIL36γ” value was 98.1%.
B3 was tested, and the “IC50 (M); hIL36α; NFκB-luciferase” value was 6.82e-09 M, the “IC50 (M); hIL36αβγ; NFκB-luciferase” value was 4.03e-08 M and the “IC50 (M); hIL36β; NFκB-luciferase” value was 3.88e-09 M. The “IC50 (M); hIL36γ; NFκB-luciferase” value was 1.88e-08 M, the “Maximum inhibition rate %; hIL36α; NFκB-luciferase” value was 98.7% and the “Maximum inhibition rate %; hIL36αβγ” value was 90.1%. For the same binder, the “Maximum inhibition rate %; hIL36β” value was 96.7% and the “Maximum inhibition rate %; hIL36γ” value was 101%.
For B4, the “IC50 (M); hIL36α; NFκB-luciferase” value was 9.83e-09 M, the “IC50 (M); hIL36αβγ; NFκB-luciferase” value was 6.62e-08 M and the “IC50 (M); hIL36β; NFκB-luciferase” value was 5.08e-09 M. The “IC50 (M); hIL36γ; NFκB-luciferase” value was 3.72e-08 M, the “Maximum inhibition rate %; hIL36α; NFκB-luciferase” value was 87.9% and the “Maximum inhibition rate %; hIL36αβγ” value was 70.5%. The “Maximum inhibition rate %; hIL36β” value was 92.3% and the “Maximum inhibition rate %; hIL36γ” value was 85.4%.
B5 was tested, and the “IC50 (M); hIL36α; NFκB-luciferase” value was 1.61e-08 M, the “IC50 (M); hIL36αβγ; NFκB-luciferase” value was roughly 4.44e-08 M and the “IC50 (M); hIL36β; NFκB-luciferase” value was 4.66e-09 M. For the same binder, the “IC50 (M); hIL36γ; NFκB-luciferase” value was 3.68e-08 M, the “Maximum inhibition rate %; hIL36α; NFκB-luciferase” value was 92% and the “Maximum inhibition rate %; hIL36αβγ” value was 77.9%. For the same binder, the “Maximum inhibition rate %; hIL36β” value was 94.7% and the “Maximum inhibition rate %; hIL36γ” value was 87.9%.
B6 was tested, and the “IC50 (M); hIL36α; NFκB-luciferase” value was 1.61e-08 M, the “IC50 (M); hIL36αβγ; NFκB-luciferase” value was roughly 1.39e-08 M and the “IC50 (M); hIL36β; NFκB-luciferase” value was 2.93e-09 M. For the same binder, the “IC50 (M); hIL36γ; NFκB-luciferase” value was 2.94e-08 M, the “Maximum inhibition rate %; hIL36α; NFκB-luciferase” value was 90.8% and the “Maximum inhibition rate %; hIL36αβγ” value was 66.3%. For the same binder, the “Maximum inhibition rate %; hIL36β” value was 83.7% and the “Maximum inhibition rate %; hIL36γ” value was 89%.
